Experimental data taken from patent US20250043302A1, “MUTATED HYDROXYPHENYLPYRUVATE DIOXYGENASE POLYPEPTIDE, AND CODING GENE AND USE THEREOF” (BEIJING DABEINONG BIOTECHNOLOGY CO., LTD., priority 2021, published 2025).

What was measured:
Type in all cases: in vivo
[1] = tested on: Arabidopsis thaliana T1 plants; assay: Isoxaflutole tolerance of transgenic Arabidopsis thaliana T1 plants (spray, bleached leaf area grade, damage score); settings: Arabidopsis thaliana T1 plants; for Grade 0 (classification and statistics of the grade of pesticide damage; number of plants) / Grade 1 (classification and statistics of the grade of pesticide damage; number of plants) / Grade 2 (classification and statistics of the grade of pesticide damage; number of plants) / Grade 3 (classification and statistics of the grade of pesticide damage; number of plants): 16 plants;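 for Scores: Weighted damage index from 0 to 100 where higher means more damage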
Summary of the method: (§1)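 Read-out: per-plant damage grade 0–3 from proportion of bleached leaf area at 7 DAT (1 <50%, 2 >50%, 3 100%). Plants were T1 transformants, glufosinate-selected, plus wild-type CK, sprayed 18 days post-sowing. Rates: topramezone 25–200, isoxaflutole 35–280, mesotrione 52.5–420 g ai/ha.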

[2] = tested on: Arabidopsis thaliana T1 plants; assay: Mesotrione tolerance of transgenic Arabidopsis thaliana T1 plants (spray, bleached leaf area grade, damage score); parameters: Scores: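 damage score 0-100 computed as Σ(N×S)/(T×M)×100 over grades 0-3 with higher meaning more damage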; settings: Table 9; for Classification and statistics of the grade of pesticide damage Grade 0: number of plants at grade 0; for Classification and statistics of the grade of pesticide damage Grade 1: number of plants at grade 1; for Classification and statistics of the grade of pesticide damage Grade 2: number of plants at grade 2; for Classification and statistics of the grade of pesticide damage Grade 3: number of plants at grade 3; for Scores: pesticide damage score
Summary of the method: as §1

[3] = tested on: Arabidopsis thaliana T1 plants; assay: Topramezone tolerance of transgenic Arabidopsis thaliana T1 plants (spray, bleached leaf area grade, damage score); settings: for Resistance evaluation / Scores / Grade 0 (classification and statistics of the grade of pesticide damage; number of plants) / Grade 1 (classification and statistics of the grade of pesticide damage; number of plants) / Grade 2 (classification and statistics of the grade of pesticide damage; number of plants) / Grade 3 (classification and statistics of the grade of pesticide damage; number of plants): Arabidopsis thaliana T1 plants; for Grade 0 (classification and statistics of the grade of pesticide damage; number of plants) / Grade 1 (classification and statistics of the grade of pesticide damage; number of plants) / Grade 2 (classification and statistics of the grade of pesticide damage; number of plants) / Grade 3 (classification and statistics of the grade of pesticide damage; number of plants): 16 plants
Summary of the method: as §1

[4] = isoxaflutole 140 g ai/ha (2x field concentration)
[5] = isoxaflutole 280 g ai/ha (4x field concentration)
[6] = topramezone 100 g ai/ha (4x field concentration)
[7] = topramezone 200 g ai/ha (8x field concentration)

B1: AsHPPDm-F372V-F383W-02: nucleotide sequence encoding Avena sativa HPPD with F372V+F383W; vector DBN11777 (nucleic acid)
DNA: ATGCCACCTACTCCAGCTACAGCTACTGGTGCTGCTGCTGCTGCCGTTACTCCTGAGCACGCTGCCAGGTCATTCCCCAGGGTGGTTCGCGTGAACCCCAGATCTGATAGGTTCCCAGTTCTGAGCTTCCACCATGTTGAGCTGTGGTGCGCTGATGCTGCTTCTGCTGCTGGCAGGTTCTCTTTCGCTCTTGGTGCTCCACTCGCTGCTAGATCTGATCTGTCTACAGGAAATAGCGCTCATGCCTCACTCCTGCTTCGCTCAGGTGCTTTGGCCTTCCTCTTCACCGCTCCATATGCTCCCCCACCTCAGGAGGCTGCTACTGCTGCTGCTACAGCCTCCATTCCAAGCTTCTCAGCTGATGCCGCTAGAACCTTCGCTGCTGCTCATGGACTTGCCGTGAGGTCTGTTGGTGTTCGCGTGGCTGATGCTGCTGAGGCTTTCAGAGTTTCCGTTGCCGGCGGAGCTAGGCCAGCTTTCGCTCCTGCTGATTTGGGACATGGTTTCGGCCTGGCTGAGGTTGAGCTTTACGGTGACGTGGTTCTCCGCTTCGTGTCTTACCCAGATGAGACTGACCTGCCTTTCCTTCCCGGCTTCGAGAGAGTTTCCTCTCCTGGTGCCGTGGATTACGGCCTGACAAGGTTCGACCACGTGGTTGGAAACGTTCCCGAGATGGCTCCAGTGATCGATTACATGAAGGGCTTCCTTGGATTCCATGAGTTCGCCGAGTTCACTGCTGAGGACGTGGGAACCACTGAGTCCGGTTTGAACTCTGTGGTTCTCGCCAACAATTCTGAGGCTGTTTTGCTCCCTCTGAATGAGCCTGTGCATGGAACCAAGAGGAGAAGCCAGATTCAAACTTACCTGGAGTACCACGGTGGCCCTGGAGTTCAGCATATCGCCCTTGCTTCTAATGATGTGTTGCGCACACTCAGAGAGATGCGCGCCAGAACCCCCATGGGAGGTTTCGAGTTCATGGCCCCACCACAGGCTAAGTACTACGAGGGCGTTAGAAGGATTGCTGGAGACGTGTTGAGCGAGGAGCAGATCAAGGAGTGCCAAGAGCTGGGTGTTCTTGTGGATAGGGATGACCAGGGCGTTCTGCTTCAAATTGTCACTAAGCCAGTGGGCGACCGCCCTACATTCTGGCTTGAGATGATTCAAAGAATCGGCTGCATGGAGAAGGATGAGGTTGGACAGGAGTACCAAAAGGGCGGATGCGGTGGCTTCGGAAAGGGTAACTTCAGCGAGTTGTTCAAGTCAATCGAGGACTACGAGAAGAGCCTCGAGGTGAAGCAGTCAGTGGTTGCCCAAAAGTCCTGA
modifications: AsHPPDm-F372V-F383W-02 Nucleotide Sequence
notes: vector DBN11777
With B1 the Resistance evaluation [1, 4] was “Highly resistant”, the Scores [1, 4] was 0 and the “Grade 0 (classification and statistics of the grade of pesticide damage; number of plants)” value [1, 4] was 16. For the same molecule, the “Grade 1 (classification and statistics of the grade of pesticide damage; number of plants)” value [1, 4] was 0, the “Grade 2 (classification and statistics of the grade of pesticide damage; number of plants)” value [1, 4] was 0 and the “Grade 3 (classification and statistics of the grade of pesticide damage; number of plants)” value [1, 4] was 0. The Resistance evaluation [1, 5] was “Highly resistant”, the Scores [1, 5] was 10 and the “Grade 0 (classification and statistics of the grade of pesticide damage; number of plants)” value [1, 5] was 12. For the same molecule, the “Grade 1 (classification and statistics of the grade of pesticide damage; number of plants)” value [1, 5] was 3, the “Grade 2 (classification and statistics of the grade of pesticide damage; number of plants)” value [1, 5] was 1 and the “Grade 3 (classification and statistics of the grade of pesticide damage; number of plants)” value [1, 5] was 0. For the same molecule, the Resistance evaluation ([2]; mesotrione 210 g ai/ha (2×)) was “Highly resistant”, the “Classification and statistics of the grade of pesticide damage Grade 0” value ([2]; mesotrione 210 g ai/ha (2×)) was 16 and the “Classification and statistics of the grade of pesticide damage Grade 1” value ([2]; mesotrione 210 g ai/ha (2×)) was 0. For the same molecule, the “Classification and statistics of the grade of pesticide damage Grade 2” value ([2]; mesotrione 210 g ai/ha (2×)) was 0, the “Classification and statistics of the grade of pesticide damage Grade 3” value ([2]; mesotrione 210 g ai/ha (2×)) was 0 and the Scores ([2]; mesotrione 210 g ai/ha (2×)) was 0. The Resistance evaluation ([2]; mesotrione 420 g ai/ha (4×)) was “Highly resistant”, the “Classification and statistics of the grade of pesticide damage Grade 0” value ([2]; mesotrione 420 g ai/ha (4×)) was 15 and the “Classification and statistics of the grade of pesticide damage Grade 1” value ([2]; mesotrione 420 g ai/ha (4×)) was 1. The “Classification and statistics of the grade of pesticide damage Grade 2” value ([2]; mesotrione 420 g ai/ha (4×)) was 0, the “Classification and statistics of the grade of pesticide damage Grade 3” value ([2]; mesotrione 420 g ai/ha (4×)) was 0 and the Scores ([2]; mesotrione 420 g ai/ha (4×)) was 2. For the same molecule, the Resistance evaluation [3, 6] was “Highly resistant”, the Scores [3, 6] was 0 and the “Grade 0 (classification and statistics of the grade of pesticide damage; number of plants)” value [3, 6] was 16. The “Grade 1 (classification and statistics of the grade of pesticide damage; number of plants)” value [3, 6] was 0, the “Grade 2 (classification and statistics of the grade of pesticide damage; number of plants)” value [3, 6] was 0 and the “Grade 3 (classification and statistics of the grade of pesticide damage; number of plants)” value [3, 6] was 0. For the same molecule, the Resistance evaluation [3, 7] was “Highly resistant”, the Scores [3, 7] was 0 and the “Grade 0 (classification and statistics of the grade of pesticide damage; number of plants)” value [3, 7] was 16. For the same molecule, the “Grade 1 (classification and statistics of the grade of pesticide damage; number of plants)” value [3, 7] was 0, the “Grade 2 (classification and statistics of the grade of pesticide damage; number of plants)” value [3, 7] was 0 and the “Grade 3 (classification and statistics of the grade of pesticide damage; number of plants)” value [3, 7] was 0. For the same molecule, the “tolerance to topramezone (resistance class)” value ([3]; topramezone at four-fold or eight-fold field concentration) was “highly-resistant”.
